Results taken from patent US20210024625A1 (published 2021).

How the values were obtained:
Assay in all cases: cell-based or functional assay
[1] = biological target: T1, PfRH5 from Plasmodium falciparum strain Dd2 (Plasmodium falciparum)
[2] = biological target: T2, PfRH5 from Plasmodium falciparum strain 7G8 (Plasmodium falciparum)
[3] = biological target: T3, PfRH5 from Plasmodium falciparum strain 3D7 (Plasmodium falciparum, UniProt Q8IFM5 25-526)
T3 sequence: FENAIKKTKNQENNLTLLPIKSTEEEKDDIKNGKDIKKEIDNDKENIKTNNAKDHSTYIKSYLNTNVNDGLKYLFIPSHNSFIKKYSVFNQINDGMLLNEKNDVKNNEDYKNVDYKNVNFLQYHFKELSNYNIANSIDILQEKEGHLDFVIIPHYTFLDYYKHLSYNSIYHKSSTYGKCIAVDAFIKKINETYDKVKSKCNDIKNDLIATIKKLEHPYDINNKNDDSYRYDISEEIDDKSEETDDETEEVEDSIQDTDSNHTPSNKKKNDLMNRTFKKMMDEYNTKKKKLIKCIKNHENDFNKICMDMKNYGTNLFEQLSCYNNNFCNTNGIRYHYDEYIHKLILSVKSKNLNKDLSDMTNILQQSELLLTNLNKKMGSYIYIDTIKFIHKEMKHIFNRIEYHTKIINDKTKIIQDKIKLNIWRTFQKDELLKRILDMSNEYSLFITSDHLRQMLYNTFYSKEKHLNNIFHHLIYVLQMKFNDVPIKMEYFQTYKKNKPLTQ

[4] = biological target: T4, PfRH5 from Plasmodium falciparum strain FCR-1/FVO (Plasmodium falciparum)
[5] = biological target: PfRH5 from Plasmodium falciparum strain Cam3.II (Plasmodium falciparum)
[6] = biological target: T2, PfRH5 from Plasmodium falciparum strain …; remark: listed apart in the source
[7] = biological target: PfRH5 from Plasmodium falciparum strain HB3 (Plasmodium falciparum)
[8] = biological target: PfRH5 from Plasmodium falciparum strain W2-mef (Plasmodium falciparum)
[9] = biological target: T1, PfRH5 from Plasmodium falciparum strain …; remark: listed apart in the source
[10] = biological target: PfRH5 from Plasmodium falciparum strain D10 (Plasmodium falciparum)
[11] = biological target: PfRH5 from Plasmodium falciparum strain RF7 (Plasmodium falciparum)
[12] = biological target: T4, PfRH5 from Plasmodium falciparum strain …; remark: listed apart in the source
[13] = biological target: T3, PfRH5 from Plasmodium falciparum strain …; remark: listed apart in the source

Binder	Maximum growth inhibition (%) [1] [%]	Max growth inhibition (%), Chloroquine Phosphate N/A [2] [%]	Max growth inhibition (%), Chloroquine Phosphate N/A [3] [%]	Max growth inhibition (%) [4] [%]	Max growth inhibition (%) [5] [%]	Max growth inhibition (%) [6] [%]	Max growth inhibition (%) [7] [%]	Max growth inhibition (%) [8] [%]	Max growth inhibition (%) [9] [%]	Max growth inhibition (%) [10] [%]	Max growth inhibition (%) [11] [%]	Percent Maximum Growth Inhibition, mAb (6.67 µM) + AHIS (10%) [12] [%]	Percent Maximum Growth Inhibition, mAb (6.67 µM) + ANS (10%) [12] [%]	Percent Maximum Growth Inhibition, mAb (6.67 µM) + HHIS (10%) [12] [%]	Percent Maximum Growth Inhibition, mAb (6.67 µM) + HNS (10%) [12] [%]	Percent Maximum Growth Inhibition, mAb (6.67 µM) + No serum [12] [%]	Max growth inhibition (%) [13] [%]
H1H29100P (antibody, V domains shown) VH: QLQLQESGPGLVKPSETLSLTCTVSGGSISSSSYYWGWIRQPPGKGLEWIGIIYYSGSTYYNPSLKSRVTISVDTSKNQFSLKLSSVTAADTAVYYCARQDREALFDYWGQGTLVTVSS VL: EIVLTQSPDFQSVTPKEKVTITCRASQRIGSSLHWYQQKPDQSPKLLIKYASQSFSGVPSRFSGSGSGTDFTLTINSLEAEDAATYYCHQSSTLPTFGQGTRLEIKR	65.7	48.9	58	66.9	52.4	66.4	62.6	67.3	64.6	81.7	17	82.5	73.2	81.9	82.4	83.9	–
H1H29147P2 (antibody, V domains shown) VH: QVQLVQSGAEVKNPGSSVKVSCKASGGTFSSYTINWVRQAPGQGLEWMGGIIPLYGTANYAQKFQARVTISTDESTNTAYMELSNLRFEDTAVYFCASTLELRAFDAFDIWGQGTMVTVSS VL: not shown	–	47.3	34.9	70.3	51.9	65.2	64.8	64.7	65.3	81.4	31.4	86.2	80.3	83.4	85.6	84.1	60.3
H1H29089P (antibody, V domains shown) VH: EVQLVQSGAEVKKPGESLKISCKGSGYSFTSYWIVWVRQMPGKGLEWMGIIYPGDSDTRYSPSFQGQVTISADKSISTAYLQWSSLKASDTAMYYCARQDITGTTGFDYWGQGTLVTVSS VL: DIQMTQSPSSLSASVGDRVTITCRASQSIRNYLNWYQQKPGKAPKLLIYAASSLQSGVPSRFSGSGSGTDFTLTISSLQPEDFATYFCQQSYSTPFTFGPGTKVDIKR	–	51.1	61.1	66	56.2	70.1	59.1	66.4	71.3	82.3	28.9	84.3	75.7	85.2	85	85.3	67.6
